2 molecules from PMC10302723, “Differential regulation of Shigella Spa47 ATPase activity by a native C-terminal product of Spa33” (Frontiers in Cellular and Infection Microbiology, 2023) can be followed below.

In general, stoichiometry N refers to the number of molecules, sites or subunits per partner or assembly. As a reminder, the Kd is the equilibrium constant for the complex coming apart.

Series [1] deals with the molecule itself. In words: AUC; sedimentation velocity of purified His-tagged Spa33C; a single dominant species of 27 ± 3 kDa; monomer to dimer.
Series [2] has as its target T1, oligomeric Spa47 (SEC-isolated homo-oligomer) (Shigella, UniProt P0A1C1 1-430).
T1 construct: Spa47, Shigella T3SS ATPase; Same construct as m5 and m7; also called Spa47 oligomer; homo-oligomeric Spa47; source: E. coli, purified (chitin column with on-column intein cleavage, anion exchange, SEC isolation of the oligomer)
In words: fluorescence polarisation; EGFP-Spa33C (or EGFP as control) held at 100 nM, Spa47 monomer or oligomer titrated 0-1.5 μM (monomer units); single site saturation binding model; concentration at half-maximum change in polarisation. As to conditions: both partners purified.

The target of series [3] is T2, monomeric Spa47 (SEC-isolated) (Shigella, UniProt P0A1C1 1-430).
T2 construct: Spa47, Shigella T3SS ATPase; Same construct as m5 and m8; also called Spa47 monomer; monomeric Spa47 isolate; source: E. coli, purified (chitin column with on-column intein cleavage, anion exchange, SEC isolation of the monomer)
The series is described as above. The note with it: both partners purified.

B1: Spa33C containing an N-terminal 6 x histidine tag (domain or fragment)
chain: MNDNNEAKINLSESNGESEHTEVSLALFNYDDINVKVDFILLEKNMTINELKMYVENELFKFPDDIVKHVNIKVNGSLVGHGELVSIEDGYGIEISSWMVKE
notes: Spa33, Shigella flexneri 2457T; Homodimer by SV-AUC (27 ± 3 kDa; dimer with His tag = 27.5 kDa); also called recombinant Spa33C; homo-dimeric Spa33C; source: E. coli, purified (IMAC, SEC); not shown: His6, N-terminal, kept
B1: the “stoichiometry N” value in series [1] stood at 2.

B2: EGFP-Spa33C fluorescent protein chimera with an N-terminal 6 x histidine tag (domain or fragment)
chain: B1 chain
notes: Spa33, Shigella flexneri 2457T; EGFP is the fluorescent probe of the polarisation assay; Oligomer state of the chimera was not measured (Spa33C with His tag is a homodimer); also called fluorescent Spa33C construct; source: E. coli (pET15b), purified (IMAC, SEC); not shown: EGFP, N-terminal, kept
With B2, the Kd in series [2] was 80 ± 10 nM; in series [3] it was 50 ± 7 nM.
